Data on six molecules can be found in patent publication US20170022287A1.

Changes are numbered by the printed parent chain.

In experiment [1] the target is CRD1-3. Put plainly: ELISA, coated CD137-Fc protein 2 µg/mL, antibody 10 or 5 µg/mL; absorbance 620 nm divided by that of the uncoated well.
Experiment [2] deals with CRD1. Described as above.
The target of experiment [3] is CRD2-4. The description is as above.
The target in experiment [4] is CRD2-3. The description is as above.
The target in experiment [5] is CRD1-2. The description is as above.
CRD1-2, sequence (chain, as listed by the source limits assumed): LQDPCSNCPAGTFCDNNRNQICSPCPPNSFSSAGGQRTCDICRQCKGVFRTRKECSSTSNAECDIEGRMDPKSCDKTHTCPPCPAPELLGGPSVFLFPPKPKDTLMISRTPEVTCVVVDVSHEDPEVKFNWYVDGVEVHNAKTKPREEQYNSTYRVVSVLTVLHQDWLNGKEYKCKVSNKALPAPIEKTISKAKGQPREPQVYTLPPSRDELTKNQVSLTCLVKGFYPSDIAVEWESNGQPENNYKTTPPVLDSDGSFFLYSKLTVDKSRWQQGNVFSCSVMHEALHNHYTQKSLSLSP
Experiment [6] deals with CRD3-4. The experiment is described as above.
CRD3-4, sequence (chain, as listed by the source limits assumed): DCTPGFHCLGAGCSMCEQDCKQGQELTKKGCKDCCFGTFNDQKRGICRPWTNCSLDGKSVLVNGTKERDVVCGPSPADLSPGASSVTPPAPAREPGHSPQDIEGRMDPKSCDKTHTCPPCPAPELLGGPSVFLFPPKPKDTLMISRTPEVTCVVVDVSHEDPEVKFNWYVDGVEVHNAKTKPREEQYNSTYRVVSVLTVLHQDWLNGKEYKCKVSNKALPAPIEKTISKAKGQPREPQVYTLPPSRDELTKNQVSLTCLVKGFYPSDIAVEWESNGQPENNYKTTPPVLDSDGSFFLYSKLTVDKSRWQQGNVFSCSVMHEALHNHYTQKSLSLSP
The target of experiment [7] is CRD1-3. Briefly: ELISA, coated CD137-Fc protein 2 µg/mL, antibody 10 or 5 µg/mL, absorbance 620 nm; Non (uncoated well) 1.146.
The target of experiment [8] is CRD1. The experiment is described as above.
In experiment [9] the target is CRD2-4. The experiment is described as above.
For experiment [10], the target named is CRD2-3. The experiment is described as above.
In experiment [11] the target is CRD1-2. Described as above.
Experiment [12] addresses CRD3-4. The description is as above.
Experiment [13] has as its target full-length human CD137-Fc fusion protein (human). Put plainly: ELISA, coated CD137-Fc protein 2 µg/mL, antibody 10 or 5 µg/mL; absorbance 620 nm divided by that of the uncoated well.
Experiment [14] has as its target CRD1-3. Put plainly: ELISA, coated CD137-Fc protein 2 µg/mL, antibody 10 or 5 µg/mL, absorbance 620 nm; Non (uncoated well) 1.114.
In experiment [15] the target is CRD2-4. The description is as above.
Experiment [16] deals with CRD2-3. The experiment is described as above.
Experiment [17] addresses CRD3-4. The description is as above.
Experiment [18] has as its target full-length human CD137-Fc fusion protein (human). The experiment is described as above.
Experiment [19] has as its target CRD1-3. Put plainly: ELISA, coated CD137-Fc protein 2 µg/mL, antibody 10 or 5 µg/mL, absorbance 620 nm; Non (uncoated well) 2.0265.
The target of experiment [20] is CRD1. The description is as above.
The target of experiment [21] is CRD2-4. Described as above.
The target of experiment [22] is CRD2-3. The experiment is described as above.
Experiment [23] concerns the target CRD1-2. Described as above.
Experiment [24] has as its target CRD3-4. The experiment is described as above.
Experiment [25] deals with CRD1-3. Briefly: ELISA, coated CD137-Fc protein 2 µg/mL, antibody 10 or 5 µg/mL, absorbance 620 nm; Non (uncoated well) 2.2055.
The target of experiment [26] is CRD1. The experiment is described as above.
For experiment [27], the target named is CRD2-4. Described as above.
Experiment [28] concerns the target CRD2-3. Described as above.
Experiment [29] has as its target CRD1-2. The description is as above.
In experiment [30] the target is CRD3-4. Described as above.
Experiment [31] concerns the target CRD1-3. Put plainly: ELISA, coated CD137-Fc protein 2 µg/mL, antibody 10 or 5 µg/mL, absorbance 620 nm; Non (uncoated well) 0.065.
In experiment [32] the target is full-length human CD137-Fc fusion protein (human). Put plainly: ELISA, coated CD137-Fc protein 2 µg/mL, antibody 10 or 5 µg/mL, absorbance 620 nm; Non (uncoated well) 0.202.
full-length human CD137-Fc fusion protein (human), sequence (chain, as listed by the source limits assumed): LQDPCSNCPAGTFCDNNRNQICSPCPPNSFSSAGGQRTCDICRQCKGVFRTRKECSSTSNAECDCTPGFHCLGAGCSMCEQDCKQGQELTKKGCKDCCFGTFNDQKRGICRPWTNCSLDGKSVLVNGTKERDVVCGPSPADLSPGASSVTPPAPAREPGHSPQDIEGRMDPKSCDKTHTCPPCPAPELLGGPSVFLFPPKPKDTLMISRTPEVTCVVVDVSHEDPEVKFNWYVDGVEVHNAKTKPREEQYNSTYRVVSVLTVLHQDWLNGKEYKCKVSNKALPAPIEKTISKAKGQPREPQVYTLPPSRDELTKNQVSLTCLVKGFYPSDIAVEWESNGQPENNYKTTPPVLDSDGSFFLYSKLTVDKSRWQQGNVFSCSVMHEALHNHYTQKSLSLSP

CRD2-4, sequence (chain, as listed by the source limits assumed): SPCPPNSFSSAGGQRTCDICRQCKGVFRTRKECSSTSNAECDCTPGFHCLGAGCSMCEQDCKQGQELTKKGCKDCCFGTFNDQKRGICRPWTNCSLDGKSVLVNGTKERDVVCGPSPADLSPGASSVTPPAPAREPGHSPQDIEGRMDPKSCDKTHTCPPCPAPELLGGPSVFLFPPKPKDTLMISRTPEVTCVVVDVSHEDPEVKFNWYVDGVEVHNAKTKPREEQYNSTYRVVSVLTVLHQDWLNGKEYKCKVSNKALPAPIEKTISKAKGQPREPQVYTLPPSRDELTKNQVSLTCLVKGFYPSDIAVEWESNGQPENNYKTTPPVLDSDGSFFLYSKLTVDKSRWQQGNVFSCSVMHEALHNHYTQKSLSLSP
CRD1, sequence (chain, as listed by the source limits assumed): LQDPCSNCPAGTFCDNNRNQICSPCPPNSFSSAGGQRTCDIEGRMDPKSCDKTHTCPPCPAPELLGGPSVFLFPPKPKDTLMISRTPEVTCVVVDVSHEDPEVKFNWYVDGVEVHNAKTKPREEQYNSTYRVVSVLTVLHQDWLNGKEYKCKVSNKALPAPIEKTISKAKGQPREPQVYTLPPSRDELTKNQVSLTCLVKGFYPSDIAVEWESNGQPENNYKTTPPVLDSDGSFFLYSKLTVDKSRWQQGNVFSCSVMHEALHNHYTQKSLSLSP
CRD1-3, sequence (chain, as listed by the source limits assumed): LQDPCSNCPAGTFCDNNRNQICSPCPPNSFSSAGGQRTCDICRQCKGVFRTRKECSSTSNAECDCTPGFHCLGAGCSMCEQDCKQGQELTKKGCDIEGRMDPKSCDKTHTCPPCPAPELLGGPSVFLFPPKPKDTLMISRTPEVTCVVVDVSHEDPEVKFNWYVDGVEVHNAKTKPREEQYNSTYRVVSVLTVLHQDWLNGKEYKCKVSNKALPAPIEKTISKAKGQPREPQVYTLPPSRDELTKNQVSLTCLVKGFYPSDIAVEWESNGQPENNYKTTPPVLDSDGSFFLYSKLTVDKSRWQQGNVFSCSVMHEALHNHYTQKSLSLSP
CRD2-3, sequence (chain, as listed by the source limits assumed): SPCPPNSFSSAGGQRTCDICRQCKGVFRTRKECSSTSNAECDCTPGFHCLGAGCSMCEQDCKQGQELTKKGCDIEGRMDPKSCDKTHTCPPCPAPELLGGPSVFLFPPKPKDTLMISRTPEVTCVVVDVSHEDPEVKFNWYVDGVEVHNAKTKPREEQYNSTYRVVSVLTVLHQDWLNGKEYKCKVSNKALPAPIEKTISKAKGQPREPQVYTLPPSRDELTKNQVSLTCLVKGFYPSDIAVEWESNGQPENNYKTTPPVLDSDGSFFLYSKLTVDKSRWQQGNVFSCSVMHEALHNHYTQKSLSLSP

B1: R13 (antibody, V domains shown)
VH: QVQLVESGGGLVQPGGSLRLSCAASGFTFSYYDIQWVRQAPGKGLEWVSSISPSGQSTYYRREVKGRFTISRDNSKNTLYLQMNSLRAEDTAVYYCARRTGREYGGGWYFDYWGQGTLVTVSS
VL: DIQMTQSPSSLSASVGDRVTITCRASQSISSYLNWYQQKPGKAPKLLIYAASSLQSGVPSRFSGSGSGTDFTLTISSLQPEDFATYYCQQFSRFPLTFGGGTKVEIK
Turning to B1, the Ratio with respect to Non-Coating with CRD1-3 [1] is 0.7; with CRD1 [2] it was 0.5; with CRD2-4 [3], 0.4; in the experiment with CRD2-3 [4], 0.5; with CRD1-2 [5] it was 0.4; with CRD3-4 [6] it was 0.2. The ELISA color development level with CRD1-3 [7] was 0.787; with CRD1 [8] it was 0.601; with CRD2-4 [9], 0.455; with CRD2-3 [10] it was 0.555; with CRD1-2 [11] it was 0.45; in the experiment with CRD3-4 [12], 0.26.

B2: R8 (antibody, V domains shown)
VH: QVQLQESGPGLVKPSETLSLTCAVSGYSISSGYYWGWIRQPPGKGLEWIGSIYHSGSTYYNPSLKSRVTISVDTSKNQFSLKLSSVTAADTAVYYCARQHSFTRYYGYYYFDYWGQGTTVTVSS
VL: B1 VL with Q89L, F91S, S92D, R93S, F94I
On to B2, for which the Ratio with respect to Non-Coating with CRD1-3 [1] turned out to be 2; with CRD2-4 [3], 2; with CRD2-3 [4] it was 2.2; with CRD3-4 [6], 2.3; in experiment [13], 1.9. Besides, the ELISA color development level with CRD1-3 [14] turned out to be 2.25; with CRD2-4 [15] it was 2.23; in the experiment with CRD2-3 [16], 2.42; in the experiment with CRD3-4 [17], 2.52; in experiment [18], 2.09.

B3: R11 (antibody, V domains shown)
VH: QVQLLESGGGLVQPGGSLRLSCAASGFTFSSYAMSWVRQAPGKGLEWVSAISGSGGSTYYADSVKGRFTISRDNSKNTLYLQMNSLRAEDTAVYYCARDKWYYYPALDYWGQGTLVTVSS
VL: B1 VL
Regarding B3, the ELISA color development level with CRD1-3 [19] turned out to be 2.45; with CRD1 [20], 1.82; with CRD2-4 [21] it was 2.3; with CRD2-3 [22], 2.73; in the experiment with CRD1-2 [23], 1.69; with CRD3-4 [24] it was 2.88. Besides, the Ratio with respect to Non-Coating came out at 1.2 in the experiment with CRD1-3 [1]; 0.9 in the experiment with CRD1 [2]; 1.1 in the experiment with CRD2-4 [3]; 1.3 with CRD2-3 [4]; 0.8 in the experiment with CRD1-2 [5]; 1.4 with CRD3-4 [6].

B4: R14 (antibody, V domains shown)
VH: B3 VH
VL: B1 VL with Q89L, F91V, S92Y, F94S
For B4, the ELISA color development level with CRD1-3 [25] turned out to be 2.42; with CRD1 [26], 1.64; in the experiment with CRD2-4 [27], 2.21; in the experiment with CRD2-3 [28] it was 2.72; with CRD1-2 [29] it was 1.7; in the experiment with CRD3-4 [30] it was 2.76. The Ratio with respect to Non-Coating with CRD1-3 [1] is 1.1; with CRD1 [2], 0.7; in the experiment with CRD2-4 [3], 1; with CRD2-3 [4], 1.2; in the experiment with CRD1-2 [5] it was 0.8; with CRD3-4 [6], 1.3.

B5: R1 (antibody, V domains shown)
VH: EVQLVQSGAEVKKPGASVKVSCKASGYTFTSYYTHWVRQAPGQGLEWMGIINPSGGSTSYAQKFQGRVTMTRDTSTSTVYMELSSLRSEDTAVYYCARGAPEYSSSSDYWGQGTMVTVSS
VL: QSALTQPASVSGSPGQSITISCTGTSSDVGGYNYVSWYQQHPGKAPKLMIYDVSNRPSGVSNRFSGSKSGNTASLTISGLQAEDEADYYCSSYTSSSTRWVFGGGTKLTVL
B5 yielded an ELISA color development level with CRD1-3 [31] of 0.473. The Ratio with respect to Non-Coating in the experiment with CRD1-3 [1] amounted to 7.3.

B6: R2 (antibody, V domains shown)
VH: EVQLQESGPGLVKPSETLSLTCTVSGGSISSSSYYWGWIRQPPGKGLEWIGSIHYTGSTYYNPSLKSRVTISVDTSKNQFSLKLSSVTAADTAVYYCARLNPSIAARPGAFDIWGQGTMVTVSS
VL: QSVLTQPPSVSAAPGQKVTISCSGSSSNIANNFVSWFQQLPGTAPKLLIYDNNKRPSGIPDRFSGSKSGTSATLGITGLQTGDEADYYCGTWDRSLSAGVFGGGTKVTVL
On to B6, for which, in experiment [13], the Ratio with respect to Non-Coating is 1. The ELISA color development level in experiment [32] stood at 0.205.
